Data as given in the supplement of paper PMC9170038.

Tested on: MS2 coat protein
Test: apparent KD of MS2 coat protein; designed switch direction (-1 OFF switch, 1 ON switch): -1; higher = weaker reporter binding
How it was run: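 Transcription of designed RNA switches on Illumina chips was done by stalled E. coli RNA polymerase. SNAP-549-labelled MS2 coat protein was then titrated in doubling steps from 0.7 or 1.5 nM to 3 µM, with steps of 0.8–1.5 h at the lowest and 10–20 min at the highest concentration. The per-design median over clusters of curve-fitted normalised fluorescence is reported as apparent KD.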

[1] = Eterna round: R95, input ligand: microRNA oligo, concentration not stated
[2] = Eterna round: R95, input ligand: FMN 200 uM
[3] = Eterna round: R95, input ligand: none
[4] = input ligand: microRNA oligo, concentration not stated

| Sequence | apparent KD of MS2 coat protein [1] [nM] | apparent KD of MS2 coat protein [2] [nM] | apparent KD of MS2 coat protein [3] [nM] | apparent KD of MS2 coat protein (input ligand: FMN 200 uM) [nM] | apparent KD of MS2 coat protein [4] [nM] | apparent KD of MS2 coat protein (input ligand: none) [nM] |
| --- | --- | --- | --- | --- | --- | --- |
| ACGUUUUUUGAGGAUAUGCGAUAGUUUUAUAUCGUAGAAGGCGAUACAUGAGGAUCACCCAUGUUUAUGGGCAU [LRO-Ex6-20] (puzzle: Exclusion 6) | 155 | – | – | – | – | – |
| CGGUACUGAGGAUAUACAUGAGGAUCACCCAUGUGUACCAGCUAGCGUACUGGCAUUAGUAGAAGGCGGUGCUG [JL-ex3-3.19 Brourd mod] (puzzle: Exclusion 3) | 14.3 | 15.7 | 13.7 | – | – | – |
| UUAAAUCAUGUAGGAUAUGCGUGGCGAAGCUAUGCAGAAGGACAUGAGGAUCACCCAUGUGCUUGCGUCUGAGUACAGAUGCUA [Mat - Exclusion NG 1 - Mod of JL - D4] (Eterna round: R96, puzzle: Exclusion NG 1) | – | – | – | 86.4 | 74 | 117 |
| UAAUGUGCGAGAGGAUAUCGUGUACAAAGUACACGAGAAGGCUUCACAUGAGGAUCACCCAUGUACCGAGGUGAAACACCUUGG [Omei Exc(NG)1 Bv1] (Eterna round: R96, puzzle: Exclusion NG 1) | – | – | – | 355 | 171 | 220 |
| AGAUCGUCAGGAUAUACAUGAGGAUCACCCAUGUAUUGUCUAAAUUUGACUAUACGAUGUAGAAGGGACGAUCG [Exclusion 3 (MOD7 of #1 Marzena11)] (Eterna round: R97, puzzle: Exclusion 3) | – | – | – | 41.7 | – | 16.2 |
| AUAUCAAGCAAGGAUAUGCAAAUGGUUAUUUAUGCAGAAGGUGCAACAUGAGGAUCACCCAUGUUUCUGGGUUU [JR_E6_Sub049] (Eterna round: R96, puzzle: Exclusion 6) | – | – | – | 124 | 41.7 | 55.7 |
| UCGUGUAUAGAGGAUAUAUUAUUUAUUUAAACAAUAGAAGGCUAAACAUGAGGAUCACCCAUGUAUUUGGUUUU [JR_Ex6_Sub052] (Eterna round: R97, puzzle: Exclusion 6) | – | – | – | 59.9 | – | 21.8 |
| CCCGAGCAUGUAGGAUAUGGCUCGGUGUCUGGGCCAGAAGGACAUGAGGAUCACCCAUGUCUGCGGGUGUGGAUAUGAUUUGGG [-32, -31 kcal A 20%] (Eterna round: R96, puzzle: Exclusion NG 1) | – | – | – | 85.2 | 14.5 | 32.1 |
| GGCAUGCAAGGAUAUACUUACAGUGAUGUUCGAAUAAGGCUACUUGAGGAUCACCCAAGUAGAAGGUGCAUGCC [Exclusion 2 (Mod JL EX2 4.74 Vienna UCT mod of Mamaed)] (Eterna round: R97, puzzle: Exclusion 2) | – | – | – | 203 | – | 26.8 |
| CCGCAAAAGGAGGAUAUCGUAUCGGAUACGAUACGAGAAGGCCUAACAUGAGGAUCACCCAUGUGUCCUAGCGG [Fiskers Ex 6 - 36] (puzzle: Exclusion 6) | 14.8 | 23.8 | 14.5 | – | – | – |
| CUUUUGUGAGGAUAUCAGUAGUAAUACAAUAGUAUUACUACUGAGAAGGCACAUGAGGAUCACCCAUGUUCCUU [Ex4 344 Omei mod 1] (puzzle: Exclusion 4) | 14.5 | – | – | – | – | – |
| AGUAGGAGAGGAUAUACAUGAAGUCGAAAGACUUCAACUCAACAUGAGGAUCACCCAUGUAGAAGGCUCCUACA [Omei Ex2 BD A6] (Eterna round: R97, puzzle: Exclusion 2) | – | – | – | 132 | – | 25.8 |
| GCACUCUUGUGAGGAUAUCGUUAAGGGACUUAACGAGAAGGUACAUGAGGAUCACCCAUGUGGAUCCUCCCGUUUGGAUCACUU [Eternabot solution 3] (Eterna round: R96, puzzle: Exclusion NG 1) | – | – | – | 177 | 103 | 112 |
| AGGUAACAUGAGGAUCACCCAUGUCAGGAUAUCAGUAAGAUUAGAAUAGAGUAGAGGAUGAGAAGGGACUAUAU [Excluse me! 19- Jieux - Exclusion 1] (puzzle: Exclusion 1) | 42.7 | – | – | – | – | – |
| AAAUUGUGAGGAUAUCAGGUGUGCUAGCGUACUGGUACAUCUGAGAAGGCACAUGAGGAUCACCCAUGUUUCUU [Mat - Exclusion 4 - Mod of JL - D43] (puzzle: Exclusion 4) | 15.2 | – | – | – | – | – |
| GUUUCGUGAGGAUAUGUGGCUUCGAUCGUGCGAAGAAGGCUACAGAAGGCACAUGAGGAUCACCCAUGUUCGUC [salish99_ex4_r4_227] (Eterna round: R97, puzzle: Exclusion 4) | – | – | – | 152 | – | 42.1 |
| CAGUACUGAGGAUAUACAUGAGGAUCACCCAUGUGUUCCAGCUAGGAAACUAGCAAGAGUAGAAGGCAGUACUG [salish99_ex3_r3_066] (puzzle: Exclusion 3) | 24.1 | – | – | – | – | – |

| Sequence | apparent KD of MS2 coat protein [1] [nM] | apparent KD of MS2 coat protein [2] [nM] | apparent KD of MS2 coat protein [3] [nM] | apparent KD of MS2 coat protein (input ligand: FMN 200 uM) [nM] | apparent KD of MS2 coat protein [4] [nM] | apparent KD of MS2 coat protein (input ligand: none) [nM] |
| --- | --- | --- | --- | --- | --- | --- |
| ACAAGCUUGUAAUGAUUGAACAUGAGGAUCACCCAUGUAAAUGGAAGAACCAAUUGGAUAAGAUAAACUCGUCUUAU [JR_STOV1_Sub004] (Eterna round: R97, puzzle: Sensor, turn-off variant 1) | – | – | – | 107 | – | 114 |
| ACAUGAGGAUCACCCAUGUAAACAUAAUGGCUCAUGUAGAGUCAGGAUAUGCGUGGCGAACAAGCGCAGAAGGGACAAGACUGG [Deportation 25 - Jieux - Exclusion NG 3] (Eterna round: R96, puzzle: Exclusion NG 3) | – | – | – | 30 | 19.6 | 27.2 |
| CGAGCUUUUUGCUCGUCUUACAUGAGGAUCACCCAUGUCAAACAAACAAACAAACGAAAGUUUGUUUGUUUGUUUGA [Mod of sellena 2] (Eterna round: R97, puzzle: Sensor, turn-off variant 1) | – | – | – | 29.4 | – | 30 |
| GCACGGAGUGUAGGAUAUCUGUGCGAUUAGCUCAGAGAAGGGCACAUGAGGAUCACCCAUGUGUAUAAACACAAUAAUCCGUGC [Eli exng1 - 069] (Eterna round: R96, puzzle: Exclusion NG 1) | – | – | – | 12.8 | 7.91 | 14.1 |
| GAUCCACAUGAGGAUCACCCAUGUGAGGAUAUGUCCAUAUUCGGCAAAUCGGAUAUGGACAGAAGGCACACCGG [JR_Exclusion1_Sub012] (puzzle: Exclusion 1) | 104 | – | – | – | – | – |
| ACUUACUGAGGAUAUACAUAGAUUUACAUGAGGAUCACCCAUGUUCCUCUAAGUAUAUAUGUAGAAGGCAGAAGGG [Mat - Exclusion 5 - JL Mod - D41] (Eterna round: R97, puzzle: Exclusion 5) | – | – | – | 55.6 | – | 166 |
| UUUUGCACGCUGCGGUCCUACAUGAGGAUCACCCAUGUGGUCUGGUGGCGUGGGUCGCCGGACUUGGCUCGUCUUGU [salish99_S_TOV1_R5_036] (Eterna round: R97, puzzle: Sensor, turn-off variant 1) | – | – | – | 19 | – | 19.1 |
| UUUUAGUCAGGAUAUACAUGAGGAUCACCCAUGUAAAAUUUUAAUUUAAUUUUAAGGUGUAGAAGGGACAUUUA [Ex3 #6] (Eterna round: R97, puzzle: Exclusion 3) | – | – | – | 28.4 | – | 33.6 |
| GGCAUGCAAGGAUAUACUUACGGUGAUGUUCGAAGCUUUCUACUUGAGGAUCACCCAAGUAGAAGGUGCAUGCC [jl-ex2.4.75 ViennaUCT mod] (Eterna round: R97, puzzle: Exclusion 2) | – | – | – | 10.5 | – | 21.1 |
| GAACCAUGAGGAUAUUCUGAUCCUUACAUGAGGAUCACCCAUGUGAGUACAAAAGUACUCGAAGAAGGCAUGGUUC [Omei Ex5 B1] (Eterna round: R97, puzzle: Exclusion 5) | – | – | – | 616 | – | 2130 |
| AAUAAUCAUGUAGGAUAUGCGUGGCAAAGCUAUGCAGAAGGACAUGAGGAUCACCCAUGUUCUAGCGUCUGAAAACAGAUGCUA [Mat - Exclusion NG 1 - Mod of JL - D83] (Eterna round: R96, puzzle: Exclusion NG 1) | – | – | – | 451 | 29.5 | 44.3 |
| AAUUCACAUGAGGAUCACCCAUGUCAGGAUAUGGUGACGCGGGUUUCGGUGCGUGUUGCCAGAAGGGACAGCUA (puzzle: Exclusion 1) | 81.3 | – | – | – | – | – |
| GGGUGCGAGCUAAGAUCCUACAUGAGGAUCACCCAUGUGGUCCGGUGACGUGAGUCACCGGACUUAGCUCGUCUUGU [salish99_S_TOV1_R5_005] (Eterna round: R97, puzzle: Sensor, turn-off variant 1) | – | – | – | 26.3 | – | 29.2 |
| UGAGUGCUGCGAGGAUAUACAUGAGGAUCACCCAUGUUUUCGUGUGAGGCUUUGCCUCACACGAUGUAGAAGGCGCAGUACUCU [JL ENG2 1.13] (Eterna round: R96, puzzle: Exclusion NG 2) | – | – | – | 11.5 | 8.16 | 12.8 |
| CGGUGCUUCUGGAAACAUGAGGAUCACCCAUGUUGAGUUAGCGAGGAUAUCGGUAACACAUGUCACGAGAAGGCGCGAACCAGA [Ex NG3 #34] (Eterna round: R96, puzzle: Exclusion NG 3) | – | – | – | 10.4 | 13 | 16.7 |
| AAAUACAAGCAGAGAUCCUACAUGAGGAUCACCCAUGUGCUCGUCUUAUAAAGUACUAUCACGAAAGUGAUAGUACA [Sensor 3, v1 - 17] (puzzle: Sensor v3, turn-off variant 1) | 41.8 | 184 | 218 | – | – | – |
| UAAAGAGCAGGAUAUCUAAUGUAUCACAUGAGGAUCACCCAUGUCCAGCGAAAGCUGGAGGGAGAAGGGCUCUAAU [Mat - Exclusion 5 - Eli mod - D103] (puzzle: Exclusion 5) | 182 | 178 | 130 | – | – | – |
